This note sets out measurements from paper PMC7476737, “Targeting 14-3-3ε-CDC25A interactions to trigger apoptotic cell death in skin cancer” (Oncotarget, 2020).

In the experiment the target is T1, 14-3-3ε (human (endogenous in SCC12B.2 and nHEK), UniProt P62258 1-255).
T1 sequence (looked up): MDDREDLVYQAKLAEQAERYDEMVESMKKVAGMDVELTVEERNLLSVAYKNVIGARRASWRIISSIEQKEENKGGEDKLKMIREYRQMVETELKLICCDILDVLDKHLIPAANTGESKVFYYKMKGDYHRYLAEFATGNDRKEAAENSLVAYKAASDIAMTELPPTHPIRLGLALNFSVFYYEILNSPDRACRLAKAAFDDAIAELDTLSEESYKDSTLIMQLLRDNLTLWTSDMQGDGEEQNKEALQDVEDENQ
The experiment in a line: cell-based or functional assay.

[ ]: non-standard residue; d: D form. pT = C[C@@H](OP(=O)(O)O)[C@H](N)C(=O)O; pS = N[C@@H](COP(=O)(O)O)C(=O)O

B1: pS peptide (173-186 fragment of human CDC25A with phospho-Ser178) (peptide, UniProt P30304 173-186, looked up)
peptide: Ac-TQRQN[pS]APARMLSS-NH2
SMILES: CSCC[C@H](NC(=O)[C@H](CCCNC(=N)N)NC(=O)[C@H](C)NC(=O)[C@@H]1CCCN1C(=O)[C@H](C)NC(=O)[C@H](COP(=O)(O)O)NC(=O)[C@H](CC(N)=O)NC(=O)[C@H](CCC(N)=O)NC(=O)[C@H](CCCNC(=N)N)NC(=O)[C@H](CCC(N)=O)NC(=O)[C@@H](NC(C)=O)[C@@H](C)O)C(=O)N[C@@H](CC(C)C)C(=O)N[C@@H](CO)C(=O)N[C@@H](CO)C(N)=O
In the case of B1, the “IC50 of SCC12B.2 cell viability (neutral red assay, 0-75 μM peptide, 96 h); the pair blocked is 14-3-3ε with CDC25A” value was found to be 29 µM.

B2: pT peptide (501-515 fragment of human CDC25A with phospho-Thr507) (peptide, UniProt P30304 501-515, looked up)
peptide: Ac-FRTKSR[pT]WAGEKSKR-NH2
SMILES: CC(=O)N[C@@H](Cc1ccccc1)C(=O)N[C@@H](CCCNC(=N)N)C(=O)N[C@H](C(=O)N[C@@H](CCCCN)C(=O)N[C@@H](CO)C(=O)N[C@@H](CCCNC(=N)N)C(=O)N[C@H](C(=O)N[C@@H](Cc1c[nH]c2ccccc12)C(=O)N[C@@H](C)C(=O)NCC(=O)N[C@@H](CCC(=O)O)C(=O)N[C@@H](CCCCN)C(=O)N[C@@H](CO)C(=O)N[C@@H](CCCCN)C(=O)N[C@@H](CCCNC(=N)N)C(N)=O)[C@@H](C)OP(=O)(O)O)[C@@H](C)O
As for B2, the “IC50 of SCC12B.2 cell viability (neutral red assay, 0-75 μM peptide, 96 h); the pair blocked is 14-3-3ε with CDC25A” value worked out at 22.6 µM.
